From patent publication US20240261333A1, “NOVEL TARGETS FOR ENHANCING ANTI-TUMOR IMMUNITY” (THE BROAD INSTITUTE, INC., priority 2021, published 2024)

Biological target: T1, B3GNT2 (Homo sapiens, UniProt Q9NY97)
T1 construct: The respective ORFs of candidate genes [CD274 (NM_014143), MCL1 (NM_021960), JUNB (NM_002229), and B3GNT2 (NM_006577)] were synthesized; expressed in transfected cells; host or cells: A375 melanoma cells (lentiviral ORF overexpression)
T1 sequence (Q9NY97 1-397): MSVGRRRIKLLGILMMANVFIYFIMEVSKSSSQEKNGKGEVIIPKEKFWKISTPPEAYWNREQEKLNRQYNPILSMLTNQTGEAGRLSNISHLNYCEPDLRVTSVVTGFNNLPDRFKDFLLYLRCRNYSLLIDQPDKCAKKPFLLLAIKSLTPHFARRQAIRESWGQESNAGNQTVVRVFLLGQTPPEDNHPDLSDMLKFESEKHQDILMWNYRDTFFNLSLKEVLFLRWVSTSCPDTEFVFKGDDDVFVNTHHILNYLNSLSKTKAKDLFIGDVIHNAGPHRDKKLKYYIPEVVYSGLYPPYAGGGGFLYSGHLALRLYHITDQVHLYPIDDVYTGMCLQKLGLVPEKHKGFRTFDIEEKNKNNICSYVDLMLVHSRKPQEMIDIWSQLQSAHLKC
Experiment: Co-IP of FLAG-tagged B3GNT2 followed by mass spectrometry
Format: cell-based
Parameters: C-term IgG / C-term flag: unit not given here
Conditions: Co-IP followed by mass spectrometry of B3GNT2; for C-term flag / C-term IgG: C-term tag; for C-term flag / N-term FLAG: FLAG pull-down; for C-term IgG / N-term IgG: IgG pull-down; for N-term FLAG / N-term IgG: N-term tag
In short: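 FLAG-tagged B3GNT2 immunoprecipitated from cell lysate (HEPES, 1% Triton X-100, 150 mM NaCl) with anti-FLAG versus […], overnight at 4° C, then captured on Protein A/G magnetic beads for 4 h. Two biological replicates per condition. Peptides fractionated and analyzed by nano-LC on an Orbitrap Elite in data-dependent mode.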

B1: XPOT (protein)
chain: MDEQALLGLNPNADSDFRQRALAYFEQLKISPDAWQVCAEALAQRTYSDDHVKFFCFQVLEHQVKYKYSELTTVQQQLIRETLISWLQAQMLNPQPEKTFIRNKAAQVFALLFVTEYLTKWPKFFFDILSVVDLNPRGVDLYLRILMAIDSELVDRDVVHTSEEARRNTLIKDTMREQCIPNLVESWYQILQNYQFTNSEVTCQCLEVVGAYVSWIDLSLIANDRFINMLLGHMSIEVLREEACDCLFEVVNKGMDPVDKMKLVESLCQVLQSAGFFSIDQEEDVDFLARFSKLVNGMGQSLIVSWSKLIKNGDIKNAQEALQAIETKVALMLQLLIHEDDDISSNIIGFCYDYLHILKQLTVLSDQQKANVEAIMLAVMKKLTYDEEYNFENEGEDEAMFVEYRKQLKLLLDRLAQVSPELLLASVRRVFSSTLQNWQTTRFMEVEVAIRLLYMLAEALPVSHGAHFSGDVSKASALQDMMRTLVTSGVSSYQHTSVTLEFFETVVRYEKFFTVEPQHIPCVLMAFLDHRGLRHSSAKVRSRTAYLFSRFVKSLNKQMNPFIEDILNRIQDLLELSPPENGHQSLLSSDDQLFIYETAGVLIVNSEYPAERKQALMRNLLTPLMEKFKILLEKLMLAQDEERQASLADCLNHAVGFASRTSKAFSNKQTVKQCGCSEVYLDCLQTFLPALSCPLQKDILRSGVRTFLHRMIICLEEEVLPFIPSASEHMLKDCEAKDLQEFIPLINQITAKFKIQVSPFLQQMFMPLLHAIFEVLLRPAEENDQSAALEKQMLRRSYFAFLQTVTGSGMSEVIANQGAENVERVLVTVIQGAVEYPDPIAQKTCFIILSKLVELWGGKDGPVGFADFVYKHIVPACFLAPLKQTFDLADAQTVLALSECAVTLKTIHLKRGPECVQYLQQEYLPSLQVAPEIIQEFCQALQQPDAKVFKNYLKVFFQRAKP
- C-term flag: 2
- C-term IgG: 0
- N-term FLAG: 2
- N-term IgG: 0

B2: P4HA2 (protein)
chain: EFFTSIGHMTDLIYAEKELVQSLKEYILVEEAKLSKIKSWANKMEALTSKSAADAEGYLAHPVNAYKLVKRLNTDWPALEDLVLQDSAAGFIANLSVQRQFFPTDEDEIGAAKALMRLQDTYRLDPGTISRGELPGTKYQAMLSVDDCFGMGRSAYNEGDYYHTVLWMEQVLKQLDAGEEATTTKSQVLDYLSYAVFQLGDLHRALELTRRLLSLDPSHERAGGNLRYFEQLLEEEREKTLTNQTEAELATPEGIYERPVDYLPERDVYESLCRGEGVKLTPRRQKRLFCRYHHGNRAPQLLIAPFKEEDEWDSPHIVRYYDVMSDEEIERIKEIAKPKLARATVRDPKTGVLTVASYRVSKSSWLEEDDDPVVARVNRRMQHITGLTVKTAELLQVANYGVGGQYEPHFDFSRNDERDTFKHLGTGNRVATFLNYMSDVEAGGATVFPDLGAAIWPKKGTAVFWYNLLRSGEGDYRTRHAACPVLVGCKWVSNKWFHERGQEFLRPCGSTEVD
- C-term flag: 4
- C-term IgG: 0
- N-term FLAG: 0
- N-term IgG: 0

B3: CPT1A (protein)
chain: AEAHQAVAFQFTVTPDGIDLRLSHEALRQIYLSGLHSWKKKFIRFKNGIITGVYPASPSSWLIVVVGVMTTMYAKIDPSLGIIAKINRTLETANCMSSQTKNVVSGVLFGTGLWVALIVTMRYSLKVLLSYHGWMFTEHGKMSRATKIWMGMVKIFSGRKPMLYSFQTSLPRLPVPAVKDTVNRYLQSVRPLMKEEDFKRMTALAQDFAVGLGPRLQWYLKLKSWWATNYVSDWWEEYIYLRGRGPLMVNSNYYAMDLLYILPTHIQAARAGNAIHAILLYRRKLDREEIKPIRLLGSTIPLCSAQWERMFNTSRIPGEETDTIQHMRDSKHIVVYHRGRYFKVWLYHDGRLLKPREMEQQMQRILDNTSEPQPGEARLAALTAGDRVPWARCRQAYFGRGKNKQSLDAVEKAAFFVTLDETEEGYRSEDPDTSMDSYAKSLLHGRCYDRWFDKSFTFVVFKNGKMGLNAEHSWADAPIVAHLWEYVMSIDSLQLGYAEDGHCKGDINPNIPYPTRLQWDIPGECQEVIETSLNTANLLANDVDFHSFPFVAFGKGIIKKCRTSPDAFVQLALQLAHYKDMGKFCLTYEASMTRLFREGRTETVRSCTTESCDFVRAMVDPAQTVEQRLKLFKLASEKHQHMYRLAMTGSGIDRHLFCLYVVSKYLAVESPFLKEVLSEPWRLSTSQTPQQQVELFDLENNPEYVSSGGGFGPVADDGYGVSYILVGENLINFHISSKFSCPETGIISQGPSSDT
- C-term flag: 2
- C-term IgG: 0
- N-term FLAG: 2
- N-term IgG: 0

B4: DDX3X (protein)
chain: SHVAVENALGLDQQFAGLDLNSSDNQSGGSTASKGRYIPPHLRNREATKGFYDKDSSGWSSSKDKDAYSSFGSRSDSRGKSSFFSDRGSGSRGRFDDRGRSDYDGIGSRGDRSGFGKFERGGNSRWCDKSDEDDWSKPLPPSERLEQELFSGGNTGINFEKYDDIPVEATGNNCPPHIESFSDVEMGEIIMGNIELTRYTRPTPVQKHAIPIIKEKRDLMACAQTGSGKTAAFLLPILSQIYSDGPGEALRAMKENGRYGRRKQYPISLVLAPTRELAVQIYEEARKFSYRSRVRPCVVYGGADIGQQIRDLERGCHLLVATPGRLVDMMERGKIGLDFCKYLVLDEADRMLDMGFEPQIRRIVEQDTMPPKGVRHTMMFSATFPKEIQMLARDFLDEYIFLAVGRVGSTSENITQKVVWVEESDKRSFLLDLLNATGKDSLTLVFVETKKGADSLEDFLYHEGYACTSIHGDRSQRDREEALHQFRSGKSPILVATAVAARGLDISNVKHVINFDLPSDIEEYVHRIGRTGRVGNLGLATSFFNERNINITKDLLDLLVEAKQEVPSWLENMAYEHHYKGSSRGRSKSSRFSGGFGARDYRQSSGASSSSFSSSRASSSRSGGGGHGSSRGFGGGGYGGFYNSDGYGGNYNSQGVDWWGN
- C-term flag: 23
- C-term IgG: 15
- N-term FLAG: 18
- N-term IgG: 19

B5: DDX17 (protein)
chain: MPTGFVAPILCVLLPSPTREAATVASATGDSASERESAAPAAAPTAEAPPPSVVTRPEPQALPSPAIRAPLPDLYPFGTMRGGGFGDRDRDRDRGGFGARGGGGLPPKKFGNPGERLRKKKWDLSELPKFEKNFYVEHPEVARLTPYEVDELRRKKEITVRGGDVCPKPVFAFHHANFPQYVMDVLMDQHFTEPTPIQCQGFPLALSGRDMVGIAQTGSGKTLAYLLPAIVHINHQPYLERGDGPICLVLAPTRELAQQVQQVADDYGKCSRLKSTCIYGGAPKGPQIRDLERGVEICIATPGRLIDFLESGKTNLRRCTYLVLDEADRMLDMGFEPQIRKIVDQIRPDRQTLMWSATWPKEVRQLAEDFLRDYTQINVGNLELSANHNILQIVDVCMESEKDHKLIQLMEEIMAEKENKTIIFVETKRRCDDLTRRMRRDGWPAMCIHGDKSQPERDWVLNEFRSGKAPILIATDVASRGLDVEDVKFVINYDYPNSSEDYVHRIGRTARSTNKGTAYTFFTPGNLKQARELIKVLEEANQAINPKLMQLVDHRGGGGGGGGRSRYRTTSSANNPNLMYQDECDRRLRGVKDGGRRDSASYRDRSETDRAGYANGSGYGSPNSAFGAQAGQYTYGQGTYGAAAYGTSSYTAQEYGAGTYGASSTTSTGRSSQSSSQQFSGIGRSGQQPQPLMSQQFAQPPGATNMIGYMGQTAYQYPPPPPPPPPSRK
- C-term flag: 30
- C-term IgG: 22
- N-term FLAG: 23
- N-term IgG: 23

B6: HNRNPH1 (protein, UniProt P31943 1-449, looked up)
Heterogeneous nuclear …: MMLGTEGGEGFVVKVRGLPWSCSADEVQRFFSDCKIQNGAQGIRFIYTREGRPSGEAFVELESEDEVKLALKKDRETMGHRYVEVFKSNNVEMDWVLKHTGPNSPDTANDGFVRLRGLPFGCSKEEIVQFFSGLEIVPNGITLPVDFQGRSTGEAFVQFASQEIAEKALKKHKERIGHRYIEIFKSSRAEVRTHYDPPRKLMAMQRPGPYDRPGAGRGYNSIGRGAGFERMRRGAYGGGYGGYDDYNGYNDGYGFGSDRFGRDLNYCFSGMSDHRYGDGGSTFQSTTGHCVHMRGLPYRATENDIYNFFSPLNPVRVHIEIGPDGRVTGEADVEFATHEDAVAAMSKDKANMQHRYVELFLNSTAGASGGAYEHRYVELFLNSTAGASGGAYGSQMMGGMGLSNQSSYGGPASQQLSGGYGGGYGGQSSMSGYDQVLQENSSDFQSNIA
- C-term flag: 15
- C-term IgG: 11
- N-term FLAG: 11
- N-term IgG: 11
